Measured values taken from PMC4380364.

Legend:
[1] = molecular target: T1, L-selectin (cell surface, Jurkat T lymphocytes) (Homo sapiens?) (UniProt P14151); assay: competition (flow cytometry); details: vs 100 nM FITC-DREG56 antibody, 4°C, Jurkat cells, competition with 100 nM FITC-DREG56 for 35 min at 4°C, washed in PBS, 2% PFA fix, SLeX assay in PBS with 1% human serum albumin …
T1 sequence: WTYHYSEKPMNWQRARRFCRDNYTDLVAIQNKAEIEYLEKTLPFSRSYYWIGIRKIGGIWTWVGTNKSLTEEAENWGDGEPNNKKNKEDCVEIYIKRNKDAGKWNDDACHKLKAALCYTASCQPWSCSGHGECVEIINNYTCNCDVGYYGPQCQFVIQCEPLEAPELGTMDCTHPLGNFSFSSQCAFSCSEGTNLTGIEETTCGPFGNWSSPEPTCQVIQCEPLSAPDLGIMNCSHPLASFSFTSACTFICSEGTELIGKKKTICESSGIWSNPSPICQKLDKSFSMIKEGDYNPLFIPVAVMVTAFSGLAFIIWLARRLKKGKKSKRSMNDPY

[2] = molecular target: T1, L-selectin (cell surface, Jurkat T lymphocytes); assay: flow cytometry titration; details: FITC-labeled, Jurkat cells, competition with 100 nM FITC-DREG56 for 35 min at 4°C, washed in PBS, 2% PFA fix, SLeX assay in PBS with 1% human serum albumin …, scale: apparent affinity relative to LS-Multi-Aptamer

TAGCCAAGGTAACCAGTACAAGGTGCTAAACGTAATGGCTTCGGCTTAC [LS-Aptamer (monovalent)]
IC50 [1]: > 1000 nM | binding signal [2]: 0.001
